This assay has as its target T1, His-tagged recombinant human CD163 (R&D Systems, No. 1607-CD-050) (human, UniProt Q86VB7 42-1050, limits assumed).
T1 construct: Bought protein; also called huCD163; not shown: His tag
The assay can be described thus: ELISA on plate-coated recombinant human CD163 (5 ug/mL), anti-human IgG F(ab')2 HRP. As for the experimental part: AB101 binding to His-tagged recombinant human CD163 (R&D Systems, No. 1607-CD-050) and recombinant murine CD163 (R&D Systems, No. 7435-CD-050) proteins was determined using ELISA. Recombinant proteins were diluted in PBS to 5 μg/mL and added to 384-well High binding ELISA plates (Greiner Bio-One, No. 781061) at 25 μL per well and incubated at 4° C. overnight. The plates were washed three times with PBS, using the BioTek ELx405 Select microplate washer (wash program ELISA_384_PBS_3×_wash) and then blocked with 90 μL/well of blocking buffer (2% nonfat, dry milk/PBS+0.05% Tween 20) for 1 hr at RT.
After blocking, 25 μL per well of primary antibodies were added to the plates and incubated for 1 hr at room temp. The test antibody was AB101; the control anti-huCD163 antibody was a commercially available antibody in murine IgG1 framework (R&D Systems, #MAB1607); the isotype controls were a proprietary mAb, in human IgG1, human FcNull, and murine IgG1 frameworks, with known specificity. After primary antibody binding, plates were washed three times with PBS using the EL405x (wash program ELISA_384_PBS_3×_wash). […] After development, the reaction was stopped by adding 25 μL per well of 0.3 M HCl and plates were read using the SpectraMax M5e instrument at 450 nm.
(An ELISA detects its analyte on a solid surface through an enzyme-linked reagent.)

The values below come from US20220289861A1 (ONCORESPONSE, published 2022).

A word on the EC50 (read off the curve): it is the concentration needed to bring the measured effect to its halfway point.

T1 sequence (Q86VB7 42-1050 limits assumed): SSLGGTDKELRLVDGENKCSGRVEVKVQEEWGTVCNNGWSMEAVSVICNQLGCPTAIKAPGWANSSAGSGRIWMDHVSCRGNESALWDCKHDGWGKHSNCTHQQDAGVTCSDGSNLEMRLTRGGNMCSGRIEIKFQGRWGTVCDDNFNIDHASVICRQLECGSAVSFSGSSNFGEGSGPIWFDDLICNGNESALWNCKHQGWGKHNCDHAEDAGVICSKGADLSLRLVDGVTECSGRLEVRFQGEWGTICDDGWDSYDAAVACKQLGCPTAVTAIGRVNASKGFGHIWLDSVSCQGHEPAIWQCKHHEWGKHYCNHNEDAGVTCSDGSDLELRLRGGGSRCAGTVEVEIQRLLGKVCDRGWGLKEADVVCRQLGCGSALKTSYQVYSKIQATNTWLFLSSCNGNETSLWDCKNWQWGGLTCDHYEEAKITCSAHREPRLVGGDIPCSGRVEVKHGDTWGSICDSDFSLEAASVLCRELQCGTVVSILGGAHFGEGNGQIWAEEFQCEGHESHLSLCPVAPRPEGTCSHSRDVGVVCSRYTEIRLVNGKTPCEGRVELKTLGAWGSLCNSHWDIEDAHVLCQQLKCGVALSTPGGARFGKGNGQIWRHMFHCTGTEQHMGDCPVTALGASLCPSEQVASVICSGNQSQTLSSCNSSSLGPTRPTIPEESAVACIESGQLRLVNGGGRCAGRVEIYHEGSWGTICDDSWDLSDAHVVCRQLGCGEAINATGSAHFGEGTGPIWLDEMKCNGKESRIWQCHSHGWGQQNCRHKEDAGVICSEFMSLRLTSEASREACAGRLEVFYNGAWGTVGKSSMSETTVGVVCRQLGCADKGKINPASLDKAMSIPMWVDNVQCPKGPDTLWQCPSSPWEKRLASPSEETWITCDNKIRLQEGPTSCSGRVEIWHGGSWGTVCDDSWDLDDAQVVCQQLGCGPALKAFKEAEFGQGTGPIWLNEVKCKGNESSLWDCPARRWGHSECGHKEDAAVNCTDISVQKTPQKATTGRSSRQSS

B1: AB102 (antibody, human IgG1, kappa)
heavy: EVQLVESGGGVVQPGRSLRLSCAASGFTFSSYAMHWVRQAPGKGLEWVAVISYDGSNKYYADSVKGRFTISRDNSKNTLYLQMNSLRAEDTAVYYCARENVRPYYDFWSGYYSEYYYYGMDVWGQGTTVTVSSASTKGPSVFPLAPSSKSTSGGTAALGCLVKDYFPEPVTVSWNSGALTSGVHTFPAVLQSSGLYSLSSVVTVPSSSLGTQTYICNVNHKPSNTKVDKRVEPKSCDKTHTCPPCPAPEFEGGPSVFLFPPKPKDTLMISRTPEVTCVVVDVSHEDPEVKFNWYVDGVEVHNAKTKPREEQYNSTYRVVSVLTVLHQDWLNGKEYKCKVSNKALPASIEKTISKAKGQPREPQVYTLPPSREEMTKNQVSLTCLVKGFYPSDIAVEWESNGQPENNYKTTPPVLDSDGSFFLYSKLTVDKSRWQQGNVFSCSVMHEALHNHYTQKSLSLSPGK
light: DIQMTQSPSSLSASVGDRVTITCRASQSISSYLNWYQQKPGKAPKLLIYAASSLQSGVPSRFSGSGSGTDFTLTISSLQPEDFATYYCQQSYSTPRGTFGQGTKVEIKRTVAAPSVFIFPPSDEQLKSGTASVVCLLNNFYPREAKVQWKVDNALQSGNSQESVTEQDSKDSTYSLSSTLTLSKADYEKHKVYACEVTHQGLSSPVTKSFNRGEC
notes: Biotinylated for the PFA immunoprecipitation and AF647-conjugated for flow cytometry; also called AB101 FcNull antibody; AB101 in FcNull framework
As for B1, the “EC50 (read off the curve)” value was roughly 1 nM.
